In this assay the target is T1, NY-ESO-1 peptide on HLA-C*03:04 (human).
T1 peptide: LAMPFATPM
The assay is described as follows: multimer staining. The text has this: FIGS. 4A-4I are graphical representations of positive staining of Jurkat 76/CD8 cells transduced with C*03:04/NY-ESO-1₉₂₋₁₀₀ TCR genes with a cognate multimer. Jurkat 76/CD8 cells transduced with the C*03:04/NY-ESO-1₉₂₋₁₀₀ TCR (FIGS. 4B, 4E, and 4H) were stained with the C*03:04/NY-ESO-1₉₂₋₁₀₀ multimer (FIG. 4B). The C*03:04/HIV gag₁₆₄₋₁₇₂ multimer (FIGS. 4D, 4E, and 4F), C*07:02/MAGE-A1₂₈₉₋₂₉₇ TCR (clone CL2; FIGS. 4C, 4F, and 4I), and an unexchanged multimer (FIGS. 4G, 4H, and 4I) were employed as controls, as well as Jurkat 76/CD8 not transduced with a TCR (FIGS. 4A, 4D, and 4G). The percentage of multimer⁺ CD8⁺ cells is shown.
T cells (1×10⁵) were incubated for 30 minutes at 37° C. in the presence of 50 nM dasatinib (LC laboratories). The cells were then washed and incubated with 5-10 μg/ml of multimer for 30 minutes at room temperature, and R-phycoerythrin-conjugated AffiniPure Fab fragment goat anti-mouse IgG1 (Jackson ImmunoResearch Laboratories) was added for 15 minutes at 4° C. Next, the cells were washed three times and costained with an anti-CD8 mAb for 15 minutes at 4° C. Dead cells were finally discriminated using the LIVE/DEAD Fixable Dead Cell Stain kit.

B1: C*03:04/NY-ESO-1 92-100 TCR (TCR, V domains shown)
Valpha: AQSVTQPDIHITVSEGASLELRCNYSYGATPYLFWYVQSPGQGLQLLLKYFSGDTLVQGIKGFEAEFKRSQSSFNLRKPSVHWSDAAEYFCAGMDSNYQLIWGAGTKLIIKP
Vbeta: NAGVTQTPKFQVLKTGQSMTLQCAQDMNHNSMYWYRQDPGMGLRLIYYSASEGTTDKGEVPNGYNVSRLNKREFSLRLESAAPSQTSVYFCASSLPLGYEQYFGPGTRLTVT
For the molecule B1, the binding result was “recognises”.
